{"source": "patent US12612465B2", "about": "“Formulations comprising PCSK9 specific monoclonal antibodies” (Amgen Inc., priority 2012, dated 2026)", "molecules": {"B1": {"name": "21B12: human anti-PCSK9 monoclonal antibody, light/heavy variable region SEQ ID NO 23/49 (antibody, listed as Homo sapiens, V domains shown)", "VH": "QVQLVQSGAEVKKPGASVKVSCKASGYTLTSYGISWVRQAPGQGLEWMGWVSFYNGNTNYAQKLQGRGTMTTDPSTSTAYMELRSLRSDDTAVYYCARGYGMDVWGQGTTVTVSS", "VL": "QSALTQPASVSGSPGQSITISCTGTSSDVGGYNSVSWYQQHPGKAPKLMIYEVSNRPSGVSNRFSGSKSGNTASLTISGLQAEDEADYYCNSYTSTSMVFGGGTKLTVL"}}, "key": {"[1]": {"molecular_target": "T1, human PCSK9 (Homo sapiens, UniProt Q8NBP7, E620G/G670E/V474I)", "T1 construct": "made in house", "T1 sequence (Q8NBP7 153-692 V474I/E620G/G670E)": "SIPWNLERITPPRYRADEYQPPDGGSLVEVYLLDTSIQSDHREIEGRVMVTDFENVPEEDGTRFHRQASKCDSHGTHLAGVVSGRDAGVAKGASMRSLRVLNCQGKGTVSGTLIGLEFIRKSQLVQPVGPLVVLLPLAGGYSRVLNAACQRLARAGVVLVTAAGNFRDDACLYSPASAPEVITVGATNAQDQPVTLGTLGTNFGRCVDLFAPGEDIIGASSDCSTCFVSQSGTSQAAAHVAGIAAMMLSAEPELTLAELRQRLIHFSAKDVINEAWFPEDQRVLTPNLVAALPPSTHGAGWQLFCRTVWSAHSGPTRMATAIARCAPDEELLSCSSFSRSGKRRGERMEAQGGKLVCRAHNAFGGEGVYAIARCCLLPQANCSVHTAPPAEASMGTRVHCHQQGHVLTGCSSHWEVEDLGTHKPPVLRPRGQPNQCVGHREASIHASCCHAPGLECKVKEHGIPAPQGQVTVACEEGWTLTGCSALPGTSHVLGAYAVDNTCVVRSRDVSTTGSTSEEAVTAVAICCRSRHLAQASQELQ", "test": "BIAcore solution equilibrium binding assay", "conditions": "hPCSK9, solution equilibrium", "from_the_text": "Flow cell 3 was used as a background control. […] Although cPCSK9 has lower protein concentration observed from KinExA assay and SDS-gel, its concentration was not adjusted here since the concentration of cPCSK9 was not used for calculation of KD. […] FIG. 5B depicts the results from the solution equilibrium assay at three different hPCSK9 concentrations for hPCSK9. FIG. 5C depicts a similar set of results for mPCSK9. FIG. 5D depicts the results from the above biacore capture assay."}, "[2]": {"molecular_target": "T2, PCSK9 (Homo sapiens, UniProt Q8NBP7)", "T2 construct": "endogenous in cells; host or cells: human subjects, in vivo", "T2 sequence (Q8NBP7 153-692)": "as the sequence (Q8NBP7 153-692 V474I/E620G/G670E) above, with I322V, G468E, E518G counted along it", "test": "Phase 1 ascending single dose study in healthy subjects", "format": "in vivo"}, "[3]": {"molecular_target": "T2, PCSK9", "test": "Aggregate data of the studies of Examples 22-25", "format": "in vivo"}, "[4]": {"test_system": "LDLR", "test": "LDLR levels in HepG2 and HepG2-PCSK9 cells with mevinolin (immunoblot)", "format": "cell-based, human", "conditions": "48 hours", "procedure": "HepG2 cells were seeded in DMEM with 10% fetal bovine serum (FBS) and grown to ˜90% confluence. The cells were treated with indicated amounts of mevinolin (a statin, Sigma) and PCSK9 ABPs (FIGS. 12A-12C) in DMEM with 3% FBS for 48 hours. Total cell lysates were prepared. […] of total proteins were separated by gel electrophoresis and transferred to PVDF membrane. Immunoblots were performed using rabbit anti-human LDL receptor antibody (Fitzgerald) or rabbit anti-human b-actin antibody. The enhanced chemiluminescent results are shown in the top panels of FIGS. 12A-12C. The intensity of the bands were quantified by ImageJ software and normalized by b-actin. The relative levels of LDLR are shown in the lower panels of FIGS. 12A-12C.\nHepG2-PCSK9 cells were also created. These were stable HepG2 cell line transfected with human PCSK9. The cells were seeded in DMEM with 10% fetal bovine serum (FBS) and grew to ˜90% confluence. The cells were treated with indicated amounts of mevinolin (Sigma) and PCSK9 ABPs (FIGS. 12D-12F) in DMEM with 3% FBS for 48 hours. Total cell lysates were prepared. […] of total proteins were separated by gel electrophoresis and transferred to PVDF membrane Immunoblots were performed using rabbit anti-human LDL receptor antibody (Fitzgerald) or rabbit anti-human b-actin antibody. […] The intensity of the bands were quantified by ImageJ software and normalized by b-actin."}, "[5]": {"test": "Osmolality of 21B12 formulations", "format": "physicochemical", "from_the_text": "In certain embodiments, the pharmaceutical formulation is isotonic with an osmolality ranging from between about 250 to about 350 miliosmol/kg, e.g., about 250 mOsm/kg, about 260 mOsm/kg, about 270 mOsm/kg, about 280 mOsm/kg, about 290 mOsm/kg, about 300 mOsm/kg, about 310 mOsm/kg, about 320 mOsm/kg, about 330 mOsm/kg, about 340 mOsm/kg, or about 350 mOsm/kg, and including all values in between. As used herein, “osmolality” is the measure of the ratio of solutes to volume fluid. In other words, it is the number of molecules and ions (or molecules) per kilogram of a solution. Osmolality may be measured on an analytical instrument called an osmometer, such as Advanced Instruments 2020 Multi-sample Osmometer, Norwood, Mass. The Advanced Instruments 2020 Multi-sample Osmometer measures osmolality by using the Freezing Point Depression method. The higher the osmolytes in a solution, the temperature in which it will freeze drops. Osmolality may also be measured using any other methods and in any other units known in the art such as linear extrapolation."}, "[6]": {"test_system": "PCSK9", "test": "Serum lipids after a single subcutaneous dose in cynomolgus monkeys", "format": "in vivo, cynomolgus monkey", "conditions": "0.5 mg/kg single SC", "from_the_text": "Briefly, naive male cynomolgus monkeys were acclimated to their environment for at least 2 weeks prior to experimentation. Animals were randomized into treatment groups based on a pre-screen of their serum TC, HDL-C, LDL-C, and triglyceride levels, and their body weight. After 1 week, animals were fasted overnight, and bled from the peripheral vasculature (cephalic or saphenous vein), for measurement of baseline serum lipid levels at a time point designated T=0. […] Fasting blood samples were then collected from animals at designated time points over a 45 day period.\nAt specified time points, blood was collected from animals under overnight fasting conditions from the peripheral vasculature (cephalic or saphenous vein). Whole blood was allowed to coagulate for 30 minutes at room temperature. Following centrifugation at 3,000 rpm for 20 minutes, serum was collected. Direct serum cholesterol analysis was performed using the Cobas Integra 400 analyzer (Roche Diagnostics Inc, Indianapolis, Ind.). Apolipoprotein B serum levels were determined at specified time points (day 0, 3, 6, 15, 24 and 33) by Anilytics, Md., with the following methodology. A 17 μL aliquot of the sample (no preparation) was used for analysis with a Hitachi 717 Analyzer using a 6 points standard curve. If the initial value of the sample was higher than the standard curve linearity, then the sample was diluted and repeated with the result multiplied by the appropriate dilution factor. The reagents for the assay (APO-B Reagent Kit #86071, Antibody Set #86060, Control Set #86103) were obtained from DiaSorin (Stillwater, Minn.).\nA statistical model that considers baseline as a covariate and treatment group as a fixed effect was fit to the log transformed response at each time point for LDL-C, HDL-C, TC, and triglycerides. Tukey's multiple comparison correction was applied to adjust the pair wise comparisons at each time point. The statistical significance was evaluated at alpha=0.05 using adjusted p-values."}}, "note": "Entries after “also recorded” stand apart in the source; their conditions may differ.", "data": [{"molecule": "B1", "values": [{"measurement": "Kd", "setting": "[1]", "result": 0.015, "unit": "nM"}, {"measurement": "median AUC0-inf", "setting": "[2]; 420 mg IV", "result": 1550, "unit": "µg·days/mL"}, {"measurement": "median maximum observed concentration (Cmax)", "setting": "[2]; 420 mg IV", "result": 139, "unit": "µg/mL"}, {"measurement": "anti-21B12 antibodies in serum", "setting": "[2]; all 42 subjects who received 21B12", "result": "negative for anti-21B12 antibodies"}, {"measurement": "subjects with treatment-emergent adverse events", "setting": "[2]; any dose, 29 of 42 subjects", "result": 69, "unit": "%"}, {"measurement": "effects on laboratory variables, ECGs, vital signs", "setting": "[2]; human, in vivo", "result": "no trends indicative of clinically important effects"}, {"measurement": "LDL-C nadir observed after dosing", "setting": "[2]; single dose, healthy subjects", "result": "≤ 2", "unit": "weeks"}, {"measurement": "suppression of PCSK9", "setting": "[2]; single doses ≥70 mg SC", "result": "Complete suppression of PCSK9"}, {"measurement": "reduction from baseline in LDL-C at week 12", "setting": "[3]; 140 mg Q2W", "result": "~60", "unit": "%"}, {"measurement": "reduction from baseline in LDL-C at week 12", "setting": "[3]; 420 mg Q4W", "result": "~56", "unit": "%"}, {"measurement": "dose dependent reduction from baseline in ApoB", "setting": "[3]; p values<0.001", "result": "36-53%"}, {"measurement": "dose dependent reduction from baseline in non-HDL-C", "setting": "[3]; p values<0.001", "result": "36-53%"}, {"measurement": "dose dependent reduction from baseline in total cholesterol", "setting": "[3]; p values<0.001", "result": "25-37%"}, {"measurement": "LDLR levels compared with the non-neutralizer 25A7.1", "setting": "[4]", "result": "greater increase in LDLR levels"}, {"measurement": "Osmolality", "setting": "[5]; 73 mg/mL, 10 mM Na acetate, pH 5.2 +3% proline", "result": 253, "unit": "mOsmol/kg"}, {"measurement": "Osmolality", "setting": "[5]; 76 mg/mL, 10 mM Na acetate, pH 5.2", "result": 53, "unit": "mOsmol/kg"}, {"measurement": "Osmolality", "setting": "[5]; 116 mg/mL, 10 mM sodium acetate, pH 4.8, 50 mM methionine + 2% benzyl alcohol", "result": 329, "unit": "mOsmol/kg"}, {"measurement": "Osmolality", "setting": "[5]; 116 mg/mL, 10 mM sodium acetate, pH 4.8, 150 mM arginine", "result": 241, "unit": "mOsmol/kg"}, {"measurement": "Osmolality", "setting": "[5]; 116 mg/mL, 10 mM sodium acetate, pH 4.8, 1.5% proline + 1% benzyl alcohol", "result": 277, "unit": "mOsmol/kg"}, {"measurement": "Osmolality", "setting": "[5]; 116 mg/mL, 10 mM sodium acetate, pH 4.8, 2% proline + 1% benzyl alcohol", "result": 313, "unit": "mOsmol/kg"}, {"measurement": "Osmolality", "setting": "[5]; 116 mg/mL, 10 mM sodium acetate, pH 4.8, no excipient", "result": 72, "unit": "mOsmol/kg"}, {"measurement": "Osmolality", "setting": "[5]; 117 mg/mL, 10 mM Na acetate, pH 4.5", "result": 59, "unit": "mOsmol/kg"}, {"measurement": "Osmolality", "setting": "[5]; 122 mg/mL, 10 mM Na acetate, pH 5.2 +3% proline", "result": 274, "unit": "mOsmol/kg"}, {"measurement": "Osmolality", "setting": "[5]; 130 mg/mL, 10 mM Na acetate, pH 5", "result": 59, "unit": "mOsmol/kg"}, {"measurement": "Osmolality", "setting": "[5]; 148 mg/mL, 10 mM Na acetate, pH 5.2 +3% proline", "result": 301, "unit": "mOsmol/kg"}, {"measurement": "Osmolality", "setting": "[5]; 154 mg/mL, 10 mM Na acetate, pH 5.2", "result": "Did not freeze"}, {"measurement": "Osmolality", "setting": "[5]; […], 10 mM Na acetate, pH 4", "result": 59, "unit": "mOsmol/kg"}, {"measurement": "Osmolality", "setting": "[5]; […], 10 mM Na acetate, pH 5.2 +150 mM NaCl", "result": 346, "unit": "mOsmol/kg"}, {"measurement": "Osmolality", "setting": "[5]; […], 10 mM Na acetate, pH 5.2 +3% proline", "result": 252, "unit": "mOsmol/kg"}, {"measurement": "Osmolality", "setting": "[5]; […], 10 mM Na acetate, pH 5.5", "result": 64, "unit": "mOsmol/kg"}, {"measurement": "Osmolality", "setting": "[5]; […], 10 mM Na acetate, pH 5.5 +150 Mm methionine and 3% benzyl alcohol", "result": 520, "unit": "mOsmol/kg"}, {"measurement": "LDL-C returned to levels similar to control animals", "setting": "[6]", "result": "≤ 6", "unit": "days"}, {"measurement": "TC returned to levels similar to control animals", "setting": "[6]", "result": "≤ 4", "unit": "days"}, {"measurement": "maximal LDL-C lowering as compared to control animals", "setting": "[6]", "result": 64, "unit": "%"}, {"measurement": "maximal TC lowering as compared to control animals", "setting": "[6]", "result": 20, "unit": "%"}, {"measurement": "maximal lowering of LDL-C vs anti-KLH IgG2 control at the same time point (change)", "setting": "[6]", "result": "−64", "unit": "%"}, {"measurement": "serum HDL-C vs anti-KLH IgG2 control", "setting": "[6]", "result": "statistically significant change in HDL-C at a single time point (day 18 following injection); also recorded: lowered HDL-C at a single time point, 18 days after injection"}, {"measurement": "time of maximal LDL-C lowering after injection", "setting": "[6]", "result": 3, "unit": "days"}, {"measurement": "time of maximal TC lowering after injection", "setting": "[6]", "result": 3, "unit": "days"}, {"measurement": "triglycerides levels vs anti-KLH IgG2 control", "setting": "[6]", "result": "No statistically significant changes"}, {"measurement": "serum ApoB vs anti-KLH IgG2 control", "setting": "[6]; days 3, 6, 15, 24 and 33", "result": "statistically significant lower ApoB levels at day 3 only"}]}]}
